This series concerns TTF-IΔN348. Nature of the series: MST. The following applies: 5 mM MgCl2; Hill coefficient 1; MST: 50 nM DNA, 5 nM-2.4 uM protein, 80 mM Tris-HCl pH 7.6, 80 mM KCl, 0.2 mM EDTA, 5 mM MgCl2, 10% glycerol, 0.05% IGEPAL CA-630, 10 min at 30 C; EMSA and …. Background: A gel shift assay detects complexes by their altered migration in electrophoresis.

Kd data for one substance are collected here from paper PMC3772059.

The substance T2 Sal-box 30-mer oligonucleotide registered a Kd of 500 nM.

By Kd is commonly meant the constant that tells how readily two partners part at equilibrium. Lower therefore signals a tighter complex.
